Patent US20260365755 (published 2026)
Changes are numbered by the printed parent chain.

T1: FcγRIIa (human, UniProt P12318)
T1 chain: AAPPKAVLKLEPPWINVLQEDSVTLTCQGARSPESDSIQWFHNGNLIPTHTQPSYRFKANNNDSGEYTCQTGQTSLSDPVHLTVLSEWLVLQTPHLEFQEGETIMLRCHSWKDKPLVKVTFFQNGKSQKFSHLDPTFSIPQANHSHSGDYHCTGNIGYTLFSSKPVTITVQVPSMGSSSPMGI

T2: VEGF165 (human, UniProt P15692)
T2 chain: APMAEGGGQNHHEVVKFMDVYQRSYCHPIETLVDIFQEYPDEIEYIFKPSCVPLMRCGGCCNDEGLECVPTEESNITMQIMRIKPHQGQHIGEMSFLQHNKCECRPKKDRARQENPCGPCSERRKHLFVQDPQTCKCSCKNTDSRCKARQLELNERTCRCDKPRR

B1: Q-SBL-111 (antibody)
chain 1: not shown
chain 2: not shown
chain 3: EVQLVESGGGLVQPGGSLRLSCAASGYTFTNYGMNWVRQAPGKGLEWVGWINTYTGEPTYAADFKRRFTFSLDTSKSTAYLQMNSLRAEDTAVYYCAKYPHYYGSSHWYFDVWGQGTLVTVSSASTKGPSVFPLAPSSKSTSGGTAALGCLVKDYFPEPVTVSWNSGALTSGVHTFPAVLQSSGLYSLSSVVTVPSSSLGTQTYICNVNHKPSNTKVDKKVEPKSCDKTHTCPPCPAPELLGGPSVFLFPPKPKDTLMISRTPEVTCVVVDVSHEDPEVKFNWYVDGVEVHNAKTKPREEQYNSTYRVVSVLTVLHQDWLNGKEYKCKVSNKALPAPIEKTISKAKGQPREPQVCTLPPSRREMTKNQVSLWCLVKGFYPSDIAVEWESNGQPENNYKTTPPVLDSDGSFFLYSKLTVDKSRWQQGNVFSCSVMHEALHNHYTQKSLSLSPGK
chain 4: not shown
B2: Q-SBL-113 (antibody)
chain 1: not shown
chain 2: not shown
chain 3: B1 chain 3
chain 4: not shown
B3: Q-SBL-136 (antibody)
chain 1: not shown
chain 2: not shown
chain 3: B1 chain 3 with R362E, K415T
chain 4: not shown
B4: Q-SBL-109 (antibody)
chain 1: not shown
chain 2: not shown
chain 3: B1 chain 3
chain 4: not shown
B5: Q-SBL-129 (antibody)
chain 1: not shown
chain 2: not shown
chain 3: B1 chain 3 with R362E, D405F
chain 4: not shown
B6: Q-SBL-135 (antibody)
chain 1: not shown
chain 2: not shown
chain 3: B1 chain 3 with R362E, K415V
chain 4: not shown
B7: Q-SBL-127 (antibody)
chain 1: not shown
chain 2: not shown
chain 3: B1 chain 3 with R362E, D405F
chain 4: not shown
B8: Q-SBL-101 (antibody)
chain 1: not shown
chain 2: not shown
chain 3: B1 chain 3
chain 4: not shown
B9: Q-SBL-104 (antibody)
chain 1: not shown
chain 2: not shown
chain 3: B1 chain 3 with D405H
chain 4: not shown
B10: Q-SBL-102 (antibody)
chain 1: not shown
chain 2: not shown
chain 3: B1 chain 3 with R362E, D405H
chain 4: not shown
B11: Q-SBL-110 (antibody)
chain 1: not shown
chain 2: not shown
chain 3: B1 chain 3
chain 4: not shown
B12: Q-SBL-103 (antibody)
chain 1: not shown
chain 2: not shown
chain 3: B1 chain 3 with R362E, E363R
chain 4: not shown
B13: Q-SBL-117 (antibody)
chain 1: not shown
chain 2: not shown
chain 3: B1 chain 3 with R362K
chain 4: not shown
B14: Q-SBL-114 (antibody)
chain 1: not shown
chain 2: not shown
chain 3: B1 chain 3 with R362E, D405H
chain 4: not shown
B15: Q-SBL-130 (antibody)
chain 1: not shown
chain 2: not shown
chain 3: B1 chain 3 with R362E, D405F
chain 4: not shown
B16: Q-SBL-115 (antibody)
chain 1: not shown
chain 2: not shown
chain 3: B1 chain 3 with R362E, E363R
chain 4: not shown
B17: Q-SBL-112 (antibody)
chain 1: not shown
chain 2: not shown
chain 3: B1 chain 3
chain 4: not shown
B18: Q-SBL-137 (antibody)
chain 1: not shown
chain 2: not shown
chain 3: B1 chain 3 with R362E, K415S
chain 4: not shown
B19: Q-SBL-116 (antibody)
chain 1: not shown
chain 2: not shown
chain 3: B1 chain 3 with R362K
chain 4: not shown
B20: Q-SBL-105 (antibody)
chain 1: not shown
chain 2: not shown
chain 3: B1 chain 3 with E363R
chain 4: not shown
B21: Q-SBL-131 (antibody)
chain 1: not shown
chain 2: not shown
chain 3: B1 chain 3 with R362E, D405F
chain 4: not shown
B22: Q-SBL-106 (antibody)
chain 1: not shown
chain 2: not shown
chain 3: B1 chain 3 with R362E, E363R, D405H
chain 4: not shown

Biological target: T1, FcγRIIa
Assay: BLI

| Kd | Binder |
| --- | --- |
| 2.04 µM | B1 |
| 2.14 µM | B2 |
| 1.97 µM | B3 |
| 2.2 µM | B4 |
| 1.67 µM | B5 |
| 1.38 µM | B6 |
| 1.63 µM | B7 |
| 2.46 µM | B8 |
| 1.87 µM | B9 |
| 1.7 µM | B10 |
| 2.29 µM | B11 |
| 1.13 µM | B12 |
| 2.55 µM | B13 |
| 1.86 µM | B14 |
| 1.72 µM | B15 |
| 1.97 µM | B16 |
| 2.02 µM | B17 |
| 2.12 µM | B18 |
| 2.34 µM | B19 |
| 1.91 µM | B20 |
| 1.62 µM | B21 |

biological target: FcRn (human, UniProt P55899); assay: BLI

| Kd | Binder |
| --- | --- |
| 0.69 µM | B1 |
| 0.69 µM | B2 |
| 0.62 µM | B3 |
| 0.64 µM | B4 |
| 0.7 µM | B5 |
| 0.68 µM | B22 |
| 0.65 µM | B6 |
| 0.75 µM | B7 |
| 0.73 µM | B8 |
| 0.68 µM | B9 |
| 0.71 µM | B10 |
| 0.61 µM | B11 |
| 0.74 µM | B15 |
| 0.69 µM | B16 |
| 0.72 µM | B17 |
| 0.58 µM | B18 |
| 0.65 µM | B19 |
| 0.71 µM | B20 |
| 0.67 µM | B21 |

biological target: FcγRIIIa (human, UniProt P08637); assay: BLI
Sequence (P08637 17-208): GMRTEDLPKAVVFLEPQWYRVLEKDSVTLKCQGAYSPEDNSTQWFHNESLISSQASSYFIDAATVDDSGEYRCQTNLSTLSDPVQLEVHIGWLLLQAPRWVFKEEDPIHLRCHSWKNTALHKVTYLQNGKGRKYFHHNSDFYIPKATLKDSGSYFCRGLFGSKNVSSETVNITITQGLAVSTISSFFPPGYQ

| Kd | Binder |
| --- | --- |
| 0.49 µM | B1 |
| 0.6 µM | B2 |
| 0.23 µM | B3 |
| 0.34 µM | B4 |
| 0.29 µM | B5 |
| 0.3 µM | B6 |
| 0.23 µM | B7 |
| 0.5 µM | B8 |
| 0.42 µM | B10 |
| 0.57 µM | B11 |
| 0.22 µM | B12 |
| 0.36 µM | B13 |
| 0.23 µM | B14 |
| 0.29 µM | B15 |
| 0.29 µM | B16 |
| 0.6 µM | B17 |
| 0.38 µM | B18 |
| 0.37 µM | B19 |
| 0.43 µM | B20 |
| 0.33 µM | B21 |

biological target: C1q (human, UniProt P02745); assay: BLI
Sequence (P02745 23-245, chain 1 of 3): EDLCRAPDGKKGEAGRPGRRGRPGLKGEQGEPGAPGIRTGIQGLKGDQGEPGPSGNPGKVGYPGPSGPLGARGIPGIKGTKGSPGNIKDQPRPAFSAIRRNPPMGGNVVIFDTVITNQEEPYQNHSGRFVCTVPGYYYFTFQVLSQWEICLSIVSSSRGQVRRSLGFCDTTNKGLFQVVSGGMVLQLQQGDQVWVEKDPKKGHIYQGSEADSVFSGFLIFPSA
Sequence (P02746 28-253, chain 2 of 3, further chain): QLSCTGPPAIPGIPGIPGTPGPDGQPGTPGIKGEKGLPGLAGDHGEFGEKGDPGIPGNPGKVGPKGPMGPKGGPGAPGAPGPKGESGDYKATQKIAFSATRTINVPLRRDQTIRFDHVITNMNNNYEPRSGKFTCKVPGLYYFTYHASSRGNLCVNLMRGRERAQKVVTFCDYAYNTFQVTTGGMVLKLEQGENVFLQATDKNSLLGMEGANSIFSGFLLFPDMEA
Sequence (P02747 29-245, chain 3 of 3, further chain): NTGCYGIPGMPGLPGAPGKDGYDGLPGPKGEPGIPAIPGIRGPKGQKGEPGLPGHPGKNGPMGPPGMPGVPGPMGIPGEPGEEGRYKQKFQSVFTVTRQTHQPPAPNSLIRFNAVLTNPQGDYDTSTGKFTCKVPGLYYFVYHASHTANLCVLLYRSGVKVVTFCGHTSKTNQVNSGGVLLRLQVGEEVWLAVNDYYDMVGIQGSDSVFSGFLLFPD

| Kd | Binder |
| --- | --- |
| 0.03 µM | B1 |
| 0.036 µM | B2 |
| 0.028 µM | B4 |
| 0.016 µM | B5 |
| 0.018 µM | B7 |
| 0.036 µM | B8 |
| 0.04 µM | B10 |
| 0.04 µM | B12 |
| 0.04 µM | B13 |
| 0.018 µM | B14 |
| 0.017 µM | B15 |
| 0.018 µM | B16 |
| 0.032 µM | B17 |
| 0.024 µM | B18 |
| 0.033 µM | B19 |
| 0.016 µM | B21 |

Biological target: T2, VEGF165
Assay: ELISA

| EC50 | Binder |
| --- | --- |
| 0.000154 µM | B2 |
| 0.00017 µM | B5 |
| 0.000168 µM | B11 |
| 0.000149 µM | B17 |
